Measured values: patent publication US20240279345A1, “ALPHA 5 BETA 1 INTEGRIN BINDING AGENTS AND USES THEREOF” (PASITHEA THERAPEUTICS CORP., priority 2021, published 2024)
Where a chain is given by its changes, count along the chain named. Each block holds one molecule with its values, some of them ahead of it.

Key:
[1] = target: purified recombinant human α5β1 integrin heterodimer, 6×His tagged (rh-α5β1; Acro Biosystems, cat. no. IT1-H52W5) (human) (UniProt P08648); test: ELISA, inhibition of rh-α5β1-His binding to coated FN, isotype control (data normalised to it)
[2] = target: purified recombinant human α5β1 integrin heterodimer (rh-α5β1; Acro Biosystems, cat. no. IT1-H52W5) (human) (UniProt P08648); test: Conformation assay ELISA: plate coated with 12G10, soluble 12G10 dilution series premixed with His-tagged rh-α5β1 and 0.5 mM MnCl2, captured α5β1 detected by anti-6xHis; competitor on the plate: 12G10 itself
[3] = target: T1, purified recombinant human α5β1 integrin heterodimer (rh-α5β1; Acro Biosystems, cat. no. IT1-H52W5) (human, UniProt P08648 42-995; P05556 21-728); test: FN-blocking ELISA
T1 construct: Bought protein; 6×His tagged; also called rh-α5β1-6×His tagged protein; His-tagged-α5β1
Procedure: Following 1 hour at RT, the wells were washed 3 times, incubated with biotinylated Anti-6×His-Tag Ab (Invitrogen, Carlsbad, CA, cat. no. MAI-21315-BTIN) at 1:1000 in Standard Diluent for 1 hour, washed 3 times, incubated for 30 minutes with poly-HRP Streptavidin (Thermo Fisher Scientific, Waltham, MA, cat. no. N200), washed 4 times, incubated with TMB substrate (Thermo Fisher Scientific, Waltham, MA, cat. no. N301) for 2-5 minutes, followed by addition of ELISA Stop Solution (Invitrogen, Carlsbad, CA, cat. no. SS04). Absorbance 450 nm was measured. Data points were normalized to the isotype Control Ab values at each concentration and reported as % Absorbance 450 nm normalized to Control Ab. Non-linear regression analysis was used to fit curves (4-parameter) to the data using GraphPad Prism version 9.0.2 (GraphPad Software, LLC, San Diego, CA).

[4] = target: T1, purified recombinant human α5β1 …; test: Conformation assay ELISA: plate coated with 12G10, antibody dilution series premixed with His-tagged rh-α5β1 and 0.5 mM MnCl2, captured α5β1 detected by anti-6xHis; competitor on the plate: 12G10
Procedure: Plates were then washed 3 times with Wash Buffer (1× Tris Buffered Saline containing 0.05% Tween20), then blocked with 2% BSA in 1×TBS for 2 hours at room temperature (RT). […] After 1 hour at RT, the wells were washed 3 times, incubated with biotinylated Anti-6×His-Tag Ab (Invitrogen, Carlsbad, CA, cat. no. MAI-21315-BTIN) at 1:1000 in Standard Diluent for 1 hour, washed 3 times, incubated for 30 minutes with poly-HRP Streptavidin (Thermo Fisher Scientific, Waltham, MA, cat. no. N200), washed 3 times, incubated with TMB substrate (Thermo Fisher Scientific, Waltham, MA, cat. no. N301) for 2-5 minutes, followed by addition of ELISA Stop Solution (Invitrogen, Carlsbad, CA, cat. no. SS04). Absorbance 450 nm was measured.

[5] = target: T2, binding of α5β1 integrin to fibronectin (FN) (Homo sapiens, UniProt P05556+P08648); test: Quantitative FN inhibition (FN-blocking) assay in ELISA format; assay type: biochemical; settings: by ELISA
T2 construct: purchased Acro Biosystems IT1-H52W5
Source text: To determine whether the 9 unique hybridoma clones selected as described in Example 4 were able to inhibit the binding of α5β1 integrin to fibronectin (FN), the antibodies were first purified from hybridoma supernatants by Protein A chromatography, protein concentrations measured by BCA assay (Pierce™ BCA Protein Assay Kit; Thermo Fisher Scientific, Waltham, MA, cat. no. 23225) and then tested in a quantitative FN inhibition assay in an ELISA format.
Immulon4 HBX ELISA 96-well plates were coated with FN by incubation overnight at 4° C. with 2.5 μg/mL human FN (R&D Systems, Minneapolis, MN 55413, cat. no. 1918-FN) in 1×PBS (0.01M phosphate buffer and 0.154M NaCl, pH 7.4). Plates were then washed 3 times with Wash Buffer (1× Tris Buffered Saline containing 0.05% Tween20), blocked with 2% BSA in 1×TBS for 2 hours at room temperature (RT). Antibodies were diluted in Standard Diluent (2% BSA, 1×TBS, 0.05% Tween20) containing 0.1 μg/mL rh-α5β1-6×His tagged protein (Acro Biosystems, Newark, DE, cat. no. IT1-H52W5), to generate an 11 point 1:3 antibody dilution series ranging from 10,000 ng/mL to 0.17 ng/mL. Isotype control antibody (Control Ab; Ms IgG2a EMD Millipore Corp, Billerica, MA, cat. no. PP102) was used to normalize data across different assay runs. For the assays, 100 uL of the antibody dilution series/His-tagged-α5β1 mixture was added to the wells after the blocking solution was removed and wells were washed 3 times. Following 1 hour at RT, the wells were washed 3 times, incubated with biotinylated Anti-6×His-Tag Ab (Invitrogen, Carlsbad, CA, cat. no. MAI-21315-BTIN) at 1:1000 in Standard Diluent for 1 hour, washed 3 times, incubated for 30 minutes with poly-HRP Streptavidin (Thermo Fisher Scientific, Waltham, MA, cat. no. N200), washed 4 times, incubated with TMB substrate (Thermo Fisher Scientific, Waltham, MA, cat. no. N301) for 2-5 minutes, followed by addition of ELISA Stop Solution (Invitrogen, Carlsbad, CA, cat. no. SS04). Absorbance 450 nm was measured. Data points were normalized to the isotype Control Ab values at each concentration and reported as % Absorbance 450 nm normalized to Control Ab. Non-linear regression analysis was used to fit curves (4-parameter) to the data using GraphPad Prism version 9.0.2 (GraphPad Software, LLC, San Diego, CA).
Freeze-thaw stability was tested on a small aliquot of each chimera antibody by overnight storage at −80° C. followed by thaw on ice, repeated three times. […] IC50s were calculated by non-linear regression analysis curve-fitting (4-parameter) of the ELISA data (FIG. 5) using GraphPad Prism version 9.0.2 (GraphPad Software, LLC, San Diego, CA). […]

rh-α5β1 = rh-α5β1 (Homo sapiens, UniProt P05556+P08648); test: Competition binding studies by Biolayer Interferometry (epitope groups); settings: for Response (nm) / % Response: secondary mAb pre-mixed with 20 nM rh-α5β1; for % Response: relative to antigen alone
Procedure: Epitope analysis via competition binding studies was performed using Biolayer Interferometry (BLI) on the 6 antibodies selected as described in Example 5. The anti-α5β1 FN blocking antibodies A2-7A05, C-14D12 and A-15B08 were immobilized on sensors and incubated with each of the other antibodies that had been preincubated with rh-α5β1, to determine whether this antibody-antigen association prevents or allows binding to the antibody on the sensor. The magnitude of observed binding (response) was compared to binding of antigen alone under the same conditions. If the overall response was greater than 120% of antigen binding alone, then the antibodies can pair with each other. If response was less than 80% of response of antigen binding alone, then the antibodies block each other. The protocol was as follows: preincubate the panel of antibodies with antigen (1 hr). Equilibrate the sensor (30 seconds (s))-->Load lead Ab on the sensor (700s)--->Quench (480s)--->Read baseline (480s)-->measure preincubated Ab+Ag association with loaded sensor (600s).

[6] = target: T3, rh-α5β1 in active conformation (binding to 12G10) (Homo sapiens, UniProt P05556+P08648); test: 12G10 conformation assay (α5β1 integrin binding to 12G10); settings: human IgG4 chimeric antibodies; 0.5 mM MnCl2
T3 construct: purchased Acro Biosystems IT1-H52W5
Procedure: A Nunc MaxiSorp Flat-Bottom 96-well plate (Invitrogen, Waltham, MA, cat. no. 44-2404-21) was coated with 12G10 antibody at 2 μg/mL in 0.2M carbonate-bicarbonate buffer, pH9.4 (Thermo Scientific, Rockford, IL, cat. No. 28382) by incubation overnight at 4° C. Plates were then washed 3 times with Wash Buffer (1× Tris Buffered Saline containing 0.05% Tween20), then blocked with 2% BSA in 1×TBS for 2 hours at room temperature (RT). The human IgG4 chimeric versions of the antibodies were diluted in Standard Diluent (2% BSA, 1×TBS, 0.05% Tween20) containing 0.05 μg/mL rh-α5β1-6×His tagged protein (Acro Biosystems, Newark, DE, cat. no. IT1-H52W5) and 0.5 mM MnCl2 (TEKnova, Hollister, CA, cat. no. M0350) to generate a 7 point 1:5 antibody dilution series ranging from 10,000 ng/mL to 0.64 ng/mL. In addition to human IgG4 chimeric antibodies A-15B08, C-14D12 and A2-7A05, three other antibodies tested included IgG4 isotype control (human IgG4, Kappa, anti-fluorescein Ab00102-13.0, Absolute Antibody, Wilton, UK), anti-integrin alpha-5 clone SNAKA51 (MilliporeSigma, St. Louis, MO, cat. no. MABT201) known to induce integrin alpha-5 into an active conformation, and finally the 12G10 antibody itself which can directly compete with the 12G10 bound to the MaxiSorp plate. For the assays, 100 μL of the antibody dilution series, His-tagged-α5β1 mixture was added to the wells after the blocking solution was removed and wells were washed 3 times. […] Absorbance 450 nm was measured. Data points were normalized to the absorbance of the well containing no antibody for each dilution series and reported as Percent Binding. […]

- % Max Inhibition [1]: 0%
Molecule: Isotype control antibody (Ms IgG2a, EMD Millipore, cat. no. PP102)

- class of FN binding blocker [5]: strong blockers of FN binding
- binding of rh-α5β1 complexed with antibody to A2-7A05 on the sensor (rh-α5β1; antibody preincubated with rh-α5β1, A2-7A05 immobilized on sensor): able to bind
- binding of rh-α5β1 complexed with antibody to A-15B08 on the sensor (rh-α5β1; antibody preincubated with rh-α5β1, A-15B08 immobilized on sensor): not able to bind
- Response (nm) (rh-α5β1; immobilized mAb A2-7A05): 0.11 nm
- % Response (rh-α5β1; immobilized mAb A2-7A05): 309.19%
- Response (nm) (rh-α5β1; immobilized mAb A-15B08): −0.15 nm
- % Response (rh-α5β1; immobilized mAb A-15B08): −72.85%
- Response (nm) (rh-α5β1; immobilized mAb C-14D12): −0.11 nm
- % Response (rh-α5β1; immobilized mAb C-14D12): −50.49%
- epitope group (rh-α5β1; two epitope groups among 6 antibodies): second group
- reduction of α5β1 integrin binding to 12G10 [6]: approximately 50%
B3: C-14D12: anti-α5β1 antibody, VH SEQ ID NO:109, VL SEQ ID NO:110; tested as mouse hybridoma antibody and as human IgG4 chimera (antibody, V domains shown)
VH: QVQLKESGPDLVAPSQSLSITCTVSGFSLTDYGVHWVRQPPGKGLEWLVVIWSDGSTTYNSALKSRLSITKDTSKRQVFLKMNSLQTDDTAMYYCARHAPSFIRYGSRYDALDYWGQGTSVTVSS
VL: QIVLTQSPAIMSASLGERVTLTCTASSSVTSSFLHWYQQKPGSSPKLWIYSTSNLASGVPARFSGSGSGTSYSLTISSMEAEDAATYYCHQYHRSPPTFGGGTKLEIK
modifications: C-14D12 VH Sequence; C-14D12 VL Sequence
notes: tested as mouse hybridoma antibody and as human IgG4 chimera

The remaining lines, values behind:

Molecule: 12G10 (mouse anti-human integrin beta1/CD29 antibody, Novus Biologicals, cat. no. NB100-63255)
- IC50 (read off the curve) [2]: 0.08 µg/mL

B1: A-15B08 IgG4 Chimera (antibody, V domains shown)
VH: QVQLKESGPGLVAPSQSLSITCTISGFSLTSYGVHWVRQPPGKGLEWLVVIWSDGSTTYNSTLKSRLSISKDNSKSQVFFKMNSLQTDDTAMYYCARHYDYDGDWFAYWGQGTLVTVSA
VL: B3 VL with L21M, S28R, T30S, S32N, F33S, H93L
notes: heavy chain glycosylated at the NST site of CDRH2; also called A-15B08 (human IgG4 chimeric antibody)
- fold potency (IC50) against the mouse hybridoma antibody it was derived from [3]: ~2 fold
- IC50 (read off the curve) [4]: ~0.02 µg/mL

B2: C-14D12 IgG4 Chimera (antibody, V domains shown)
VH: B3 VH
VL: B3 VL
notes: also called C-14D12 (human IgG4 chimeric antibody)
- fold potency (IC50) against the mouse hybridoma antibody it was derived from [3]: ~2 fold
- IC50 (read off the curve) [4]: ~0.02 µg/mL
